Reference: patent US20230203162A1 (NUMAB THERAPEUTICS, published 2023)

Experiments:
[1] = target: T1, human recombinant CD3ε protein (Sino Biological) (human, UniProt P07766 23-126); test: SPR, CD3ε amine-coupled to CM5, antibody injected; footnote: ka1 of a two-state fitting model
T1 construct: Bought protein; also called recombinant human CD3ε; human CD3ε

[2] = target: soluble mesothelin (sMSLN); test: cell-based or functional assay
[3] = target: T2, plasma-membranous human MSLN on cell lines (H226, HPAC, H292, OVCAR-3, MeT-5A) (human, UniProt Q13421 296-598); test: cell-based or functional assay
[4] = target: T2, plasma-membranous human MSLN on cell …; test: flow cytometry on HPAC cells, protein L-PE, 4PL fit
[5] = target: T2, plasma-membranous human MSLN on cell …; test: cell-based or functional assay; remark: listed apart in the source
[6] = target: T2, plasma-membranous human MSLN on cell …; test: flow cytometry on H292 cells, protein L-PE, 4PL fit
[7] = target: soluble mesothelin (sMSLN); test: cell-based or functional assay; remark: listed apart in the source
[8] = target: T2, plasma-membranous human MSLN on cell …; test: cell-based or functional assay; remark: listed apart in the source
[9] = target: T3, recombinant human MSLN (purchased from Peprotech) (human, UniProt Q13421 296-598, limits assumed); test: SPR (Biacore T200), human MSLN; which of the two formats (MSLN immobilized / antibody captured) not given
T3 construct: Bought protein; also called recombinant human mesothelin

[10] = target: T2, plasma-membranous human MSLN on cell …; test: cell-based or functional assay; remark: listed apart in the source
[11] = target: T1, human recombinant CD3ε protein (Sino …); test: SPR, CD3ε amine-coupled to CM5, antibody injected
[12] = target: T2, plasma-membranous human MSLN on cell …; test: cell-based or functional assay; remark: listed apart in the source
[13] = target: T2, plasma-membranous human MSLN on cell …; test: cell-based or functional assay; remark: listed apart in the source
[14] = target: T1, human recombinant CD3ε protein (Sino …); test: SPR, CD3ε amine-coupled to CM5, antibody injected; footnote: kd1 of a two-state fitting model
[15] = target: T2, plasma-membranous human MSLN on cell …; test: flow cytometry on H226 cells, protein L-PE, 4PL fit
[16] = target: human serum albumin (hSA, Sigma-Aldrich A3782) (human, UniProt P02768 25-609); test: SPR, hSA amine-coupled to CM5, antibody injected, pH 5.5, 1:1 Langmuir
[17] = target: T2, plasma-membranous human MSLN on cell …; test: cell-based or functional assay; remark: listed apart in the source
[18] = target: T2, plasma-membranous human MSLN on cell …; test: flow cytometry on Met-5A cells, protein L-PE, 4PL fit
[19] = target: T2, plasma-membranous human MSLN on cell …; test: flow cytometry on H226 cells
[20] = target: T2, plasma-membranous human MSLN on cell …; test: flow cytometry on HPAC cells
[21] = target: T2, plasma-membranous human MSLN on cell …; test: flow cytometry on H292 cells

B1: PRO1872 (scMATCH3, MSLNlow KD×CD3×hSA) (other)
chain: DVVMTQSPSSLSASVGDRVTITCQASQIISSRSAWYQQKPGQPPKLLIYQASKLASGVPSRFSGSGSGTDFTLTISSLQPEDFATYYCQCTYIDSNFGAFGCGTKLTVLGGGGGSEVQLVESGGGLVQPGGSLRLSCAASGFSLSSYDMSWVRQAPGKGLAWIGASYASGPTYYASWAKGRFTISRDNSKNTVYLQMNSLRAEDTATYFCARGGWTGTSHSNIWGQGTLVTVSSGGGGSGGGGSGGGGSGGGGSDIQMTQSPSSLSASVGDRVTITCQSSQSVFSNNYLAWFQQKPGQSPKRLIYSASTLASGVPSRFSGSGSGTDFTLTISSLQPEDFATYYCLGSYACSSADCYVFGTGTKVTVLGGGGGSEVQLVESGGGLVQPGGSLRLSCAASGFSFSSSYWICWVRQAPGKCLEWVGCVFTGDGTTYYASWAKGRFTISRDNSKNTVYLQMNSLRAEDTATYFCARPVSVYYYGMDLWGQGTLVTVSSGGGGSGGGGSDIQMTQSPSSLSASVGDRVTITCQASESIGNYLAWYQQKPGKAPKLLIYSASTLASGVPSRFSGSGSGTDFTLTISSLQPEDFATYYCQSTDYGDSYIFGTGTKVTVLGGGGGSGGGGSGGGGSGGGGSEVQLVESGGGLVQPGGSLRLSCAASGISVSNDYYMCWVRQAPGKGLEWIGCISTYIGNTHYASWAKGRFTISRDNSKNTVYLQMNSLRAEDTAVYYCAKNAGYPGYRYAIDLWGQGTLVTVSS
notes: also called MSLN.CD3
- kon [1]: 293000 M⁻¹ s⁻¹
- Delta 0-50 ng/mL sMSLN (x-fold change in H226 killing potency) [2]: 8.5 fold
- Delta 0-500 ng/mL sMSLN (x-fold change in H226 killing potency) [2]: 78.2 fold
- EC50 target cell killing, H226 cells, 100 ng/ml sMSLN [3]: 130 pM
- EC50 target cell killing, H226 cells, no sMSLN [3]: 13.4 pM
- max. killing, H226 cells, 100 ng/ml sMSLN [3]: 60.7%
- max. killing, H226 cells, no sMSLN [3]: 54%
- EC50 [4]: 2160 pM
- max. binding (MFI) [4]: 33300 MFI
- Fold-diff Window (mean Met-5A EC50 / mean H226 EC50) [5]: 1.1 fold
- average mean H226 EC50, cell killing (LDH release) [5]: 120 pM
- average mean Met-5A EC50, cell killing (LDH release) [5]: 138 pM
- EC50 [6]: 709 pM
- max. binding (MFI) [6]: 12200 MFI
- fold reduction of H226 killing potency with 500 ng/ml sMSLN [7]: 106 fold
- shift of H226 killing potency with 100 ng/ml sMSLN [7]: 10 fold
- fold killing potency against PRO2000, H292 cells [8]: 7 fold
- fold killing potency against PRO2000, MeT-5A cells [8]: 16 fold
- fold lower H226 killing potency against PRO2000, no sMSLN [8]: 20 fold
- fold lower H226 killing potency against PRO2100, no sMSLN [8]: 10 fold
- Kd [9]: 187 pM
- koff [9]: 4.96e-05 s⁻¹
- kon [9]: 265000 M⁻¹ s⁻¹
- EC50 CD8+ T cell activation with H226 cells, 50 ng/ml MSLN [10]: 200 pM
- EC50 CD8+ T cell activation with H226 cells, 500 ng/ml MSLN [10]: 1120 pM
- EC50 CD8+ T cell activation with H226 cells, no MSLN [10]: 22.9 pM
- Kd [11]: 12100 pM
- EC50 H226 target cell killing, 50 ng/ml soluble mesothelin [12]: 636 pM
- EC50 H226 target cell killing, 500 ng/ml soluble mesothelin [12]: 4650 pM
- EC50 H226 target cell killing, no mesothelin [12]: 43.9 pM
- EC50 CD8+ T cell activation, H292 cells [13]: 34.1 pM
- EC50 CD8+ T cell activation, HPAC cells [13]: 47.2 pM
- EC50 target cell killing, H292 cells [13]: 91 pM
- EC50 target cell killing, HPAC cells [13]: 30.3 pM
- koff [14]: 0.00508 s⁻¹
- EC50 [15]: 1570 pM
- max. binding (MFI) [15]: 467000 MFI
- Kd [16]: 175 pM
- koff [16]: 6.39e-05 s⁻¹
- kon [16]: 366000 M⁻¹ s⁻¹
- EC50 CD8+ T cell activation, H226 cells [17]: 0.09 pM
- EC50 CD8+ T cell activation, Met-5A cells [17]: 10.9 pM
- EC50 target cell killing, H226 cells [17]: 5.31 pM
- EC50 target cell killing, Met-5A cells [17]: 8.88 pM
- EC50 [18]: 194 pM
- max. binding (MFI) [18]: 11200 MFI

B2: PRO2100 (MATCH4) (other)
chain 1: DIQMTQSPSSLSASVGDRVTITCQASQNIYSNLAWYQQKPGKAPKLLIYDASDLASGVPSRFSGSGSGTDFTLTISSLQPEDFATYYCQQVRSSSDIDNPFGTGTKVTVLGGGGGSGGGGSGGGGSGGGGSQVQLVESGGGLVQPGGSLRLSCAASGFSLSSYAMGWVRQAPGKGLEWIGYISTIANTYYASWAKGRFTISRDNSKNTVYLQMNSLRAEDTAVYYCAREIRSGWVDYGFSIWGQGTLVTVSSGGGGSGGGGSEVQLVESGGGLVQPGGSLRLSCAASGFSLSSYDMSWVRQAPGKGLAWIGASYASGPTYYASWAKGRFTISRDNSKNTVYLQMNSLRAEDTATYFCARGGWTGTSHSNIWGQGTLVTVSSGGGSGGGSEVQLVESGGGLVQPGGSLRLSCAASGFSFSSSYWICWVRQAPGKCLEWVGCVFTGDGTTYYASWAKGRFTISRDNSKNTVYLQMNSLRAEDTATYFCARPVSVYYYGMDLWGQGTLVTVSS
chain 2: DIQMTQSPSSLSASVGDRVTITCQASQNIYSNLAWYQQKPGKAPKLLIYDASDLASGVPSRFSGSGSGTDFTLTISSLQPEDFATYYCQQVRSSSDIDNPFGTGTKVTVLGGGGGSGGGGSGGGGSGGGGSQVQLVESGGGLVQPGGSLRLSCAASGFSLSSYAMGWVRQAPGKGLEWIGYISTIANTYYASWAKGRFTISRDNSKNTVYLQMNSLRAEDTAVYYCAREIRSGWVDYGFSIWGQGTLVTVSSGGGGSGGGGSDVVMTQSPSSLSASVGDRVTITCQASQIISSRSAWYQQKPGQPPKLLIYQASKLASGVPSRFSGSGSGTDFTLTISSLQPEDFATYYCQCTYIDSNFGAFGCGTKLTVLGGGSGGSDIQMTQSPSSLSASVGDRVTITCQSSQSVFSNNYLAWFQQKPGQSPKRLIYSASTLASGVPSRFSGSGSGTDFTLTISSLQPEDFATYYCLGSYACSSADCYVFGTGTKVTVLG
notes: Variant of PRO2000 with anti-MSLN 54-01-G02-sc01 N66A (potential glycosylation site mutated)
- fold binding against PRO1872 [19]: 3 fold
- fold binding against PRO1872 [20]: 1.5 to 2 fold
- EC50 target cell killing, H226 cells, 100 ng/ml sMSLN [3]: 3.56 pM
- EC50 target cell killing, H226 cells, no sMSLN [3]: 1.54 pM
- max. killing, H226 cells, 100 ng/ml sMSLN [3]: 58.9%
- max. killing, H226 cells, no sMSLN [3]: 46.3%
- EC50 [4]: 1010 pM
- max. binding (MFI) [4]: 18000 MFI
- EC50 [6]: 1300 pM
- max. binding (MFI) [6]: 6250 MFI
- shift of H226 killing potency with 100 ng/ml sMSLN [7]: 2 fold
- fold lower binding against PRO1872 [21]: 2 fold
- EC50 [15]: 524 pM
- max. binding (MFI) [15]: 363000 MFI
- EC50 [18]: 62.8 pM
- max. binding (MFI) [18]: 7480 MFI
